B1: GST-Miro1 WT [not stated] / KIF5C [modified: 35S-methionine label; 35S-methionine label] [not stated] (parent)
chain 1: MKKDVRILLVGEPRVGKTSLIMSLVSEEFPEEVPPRAEEITIPADVTPERVPTHIVDYSEAEQSDEQLHQEISQANVICIVYAVNNKHSIDKVTSRWIPLINERTDKDSRLPLILVGNKSDLVEYSSMETILPIMNQYTEIETCVECSAKNLKNISELFYYAQKAVLHPTGPLYCPEEKEMKPACIKALTRIFKISDQDNDGTLNDAELNFFQRICFNTPLAPQALEDVKNVVRKHISDGVADSGLTLKGFLFLHTLFIQRGRHETTWTVLRRFGYDDDLDLTPEYLFPLLKIPPDCTTELNHHAYLFLQSTFDKHDLDRDCALSPDELKDLFKVFPYIPWGPDVNNTVCTNERGWITYQGFLSQWTLTTYLDVQRCLEYLGYLGYSILTEQESQASAVTVTRDKKIDLQKKQTQRNVFRCNVIGVKNCGKSGVLQALLGRNLMRQKKIREDHKSYYAINTVYVYGQEKYLLLHDISESEFLTEAEIICDVVCLVYDVSNPKSFEYCARIFKQHFMDSRIPCLIVAAKSDLHEVKQEYSISPTDFCRKHKMPPPQAFTCNTADAPSKDIFVKLTTMAMYPHVTQADLKSSTFWLRASFGATVFAVLGFAMYKALLKQR
chain 2: MADPAECSIKVMCRFRPLNEAEILRGDKFIPKFKGDETVVIGQGKPYVFDRVLPPNTTQEQVYNACAKQIVKDVLEGYNGTIFAYGQTSSGKTHTMEGKLHDPQLMGIIPRIAHDIFDHIYSMDENLEFHIKVSYFEIYLDKIRDLLDVSKTNLAVHEDKNRVPYVKGCTERFVSSPEEVMDVIDEGKANRHVAVTNMNEHSSRSHSIFLINIKQENVETEKKLSGKLYLVDLAGSEKVSKTGAEGAVLDEAKNINKSLSALGNVISALAEGTKTHVPYRDSKMTRILQDSLGGNCRTTIVICCSPSVFNEAETKSTLMFGQRAKTIKNTVSVNLELTAEEWKKKYEKEKEKNKTLKNVIQHLEMELNRWRNGEAVPEDEQISAKDQKNLEPCDNTPIIDNIAPVVAGISTEEKEKYDEEISSLYRQLDDKDDEINQQSQLAEKLKQQMLDQDELLASTRRDYEKIQEELTRLQIENEAAKDEVKEVLQALEELAVNYDQKSQEVEDKTRANEQLTDELAQKTTTLTTTQRELSQLQELSNHQKKRATEILNLLLKDLGEIGGIIGTNDVKTLADVNGVIEEEFTMARLYISKMKSEVKSLVNRSKQLESAQMDSNRKMNASERELAACQLLISQHEAKIKSLTDYMQNMEQKRRQLEESQDSLSEELAKLRAQEKMHEVSFQDKEKEHLTRLQDAEEMKKALEQQMESHREAHQKQLSRLRDEIEEKQKIIDEIRDLNQKLQLEQEKLSSDYNKLKIEDQEREMKLEKLLLLNDKREQAREDLKGLEETVSRELQTLHNLRKLFVQDLTTRVKKSVELDNDDGGGSAAQKQKISFLENNLEQLTKVHKQLVRDNADLRCELPKLEKRLRATAERVKALESALKEAKENAMRDRKRYQQEVDRIKEAVRAKNMARRAHSAQIAKPIRPGHYPASSPTAVHAIRGGGGSSSNSTHYQK

Variants of: B1
Test: GST pull-down of in vitro translated 35S-labeled protein
Details: with KIF5C [modified: 35S-methionine label, 2 mM Ca2+, normalized to 100 at 0 mM Ca2+, parent: 70, read off a plot
chain 1 E208K E328K was tested, and the screen value was 98.

Source: paper PMC2670979
